Laboratory results: publication PMC9019556, “Molecular interactions of STAC proteins with skeletal muscle dihydropyridine receptor and excitation‐contraction coupling” (Protein Science : A Publication of the Protein Society, 2022)

T1: full-length II–III loop of the skeletal muscle dihydropyridine receptor α1S subunit (UniProt P07293 665-785)
T1 construct: cytosolic II–III loop of the DHPR α1S subunit (skeletal muscle voltage-dependent L-type calcium channel), 115 amino acids; The methods' sentence 'genes for human STAC2SH3s and the DHPR II–III loop' leaves open whether the loop is human; Used unlabelled (SPR, immobilised) and 15N-labelled (NMR); also called DHPR II–III loop; full II–III loop
T1 sequence (looked up): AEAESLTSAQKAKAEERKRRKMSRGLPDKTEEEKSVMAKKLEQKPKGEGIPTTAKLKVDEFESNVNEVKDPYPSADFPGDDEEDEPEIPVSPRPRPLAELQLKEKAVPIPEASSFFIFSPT


Target: T1, full-length II–III loop of the skeletal …
Test: SPR; full DHPR II–III loop immobilised on a CM5 chip by amine coupling; STAC proteins flowed over at 30 μL/min for 120 s; Biacore 8K, 20°C; 10 mM HEPES-HCl pH 7.4, 150 mM NaCl, 0.05% Tween-20, 3 mM EDTA; affinity curve
Details: both partners purified

| Kd | Binder |
| --- | --- |
| 21 µM | tandem SH3 domains of STAC3 (SH3 and cysteine-rich domain-containing protein 3) (domain or fragment, human, human STAC3, tandem SH3 domains (SH3_1 and SH3_2) at the C-terminal end; Used unlabelled (SPR, titrant in NMR) and 15N-labelled (NMR titration with the C3 peptide); also called STAC3SH3s) GFQQSHYFVALYRFKALEKDDLDFPPGEKITVIDDSNEEWWRGKIGEKVGFFPPNFIIRVRAGERVHRVTRSFVGNREIGQITLKKDQIVVQKGDEAGGYVKVYTGRKVGLFPTDFLEEI |
| 22.6 µM | tandem SH3 domains of STAC2 (domain or fragment, human, human STAC2, tandem SH3 domains (SH3_1 and SH3_2) at the C-terminal end; Used unlabelled (SPR) and 15N-labelled (NMR); also called STAC2SH3s) SYVALYKFLPQENNDLALQPGDRIMLVDDSNEDWWKGKIGDRVGFFPANFVQRVRPGENVWRCCQPFSGNKEQGYMSLKENQICVGVGRSKDADGFIRVSSGKKRGLVPVDALTEI |
